Assay results taken from patent publication US20240024520A1 (UCB, published 2024).
“And” between values parts separate entries of the source, which are not always exact repeats. Equal entries are not always repeated. Where two headings read alike, the source gives them in different places. Ends that are not written are not given here. * marks the point of attachment. Cam = NC(=O)C*

Legend:
[1] = biological target: T1, human complement component C5 (human, UniProt P01031 19-673; P01031 678-1676); experiment: SPR, cysteines reduced and capped with iodoacetamide; K92, cysteines reduced and capped with iodoacetamide
T1 construct: mature; Mature C5 is a disulphide-linked beta and alpha chain cut from one precursor; Terbium-labelled in the FRET assays, biotinylated in part of the phage ELISA; also called human C5; C5-Tb
T1 sequence (P01031 19-673 limits assumed, chain 1 of 2): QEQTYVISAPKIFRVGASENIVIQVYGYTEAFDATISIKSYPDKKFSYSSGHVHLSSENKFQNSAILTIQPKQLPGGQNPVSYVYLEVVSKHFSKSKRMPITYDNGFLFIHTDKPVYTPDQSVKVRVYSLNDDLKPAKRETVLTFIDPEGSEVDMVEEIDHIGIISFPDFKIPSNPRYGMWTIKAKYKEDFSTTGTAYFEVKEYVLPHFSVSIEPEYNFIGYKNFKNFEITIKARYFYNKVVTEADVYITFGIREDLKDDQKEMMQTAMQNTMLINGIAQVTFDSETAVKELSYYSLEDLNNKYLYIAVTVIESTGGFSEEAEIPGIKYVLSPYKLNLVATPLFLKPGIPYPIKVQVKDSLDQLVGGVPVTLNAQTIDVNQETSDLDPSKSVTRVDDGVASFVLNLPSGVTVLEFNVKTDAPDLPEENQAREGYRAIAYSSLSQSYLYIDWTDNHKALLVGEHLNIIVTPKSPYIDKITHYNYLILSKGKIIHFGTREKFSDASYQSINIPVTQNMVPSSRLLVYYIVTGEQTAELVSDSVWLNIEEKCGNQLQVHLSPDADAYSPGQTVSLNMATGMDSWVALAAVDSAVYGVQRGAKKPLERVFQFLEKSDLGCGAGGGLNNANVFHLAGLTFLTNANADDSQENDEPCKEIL
T1 sequence (P01031 678-1676 limits assumed, chain 2 of 2): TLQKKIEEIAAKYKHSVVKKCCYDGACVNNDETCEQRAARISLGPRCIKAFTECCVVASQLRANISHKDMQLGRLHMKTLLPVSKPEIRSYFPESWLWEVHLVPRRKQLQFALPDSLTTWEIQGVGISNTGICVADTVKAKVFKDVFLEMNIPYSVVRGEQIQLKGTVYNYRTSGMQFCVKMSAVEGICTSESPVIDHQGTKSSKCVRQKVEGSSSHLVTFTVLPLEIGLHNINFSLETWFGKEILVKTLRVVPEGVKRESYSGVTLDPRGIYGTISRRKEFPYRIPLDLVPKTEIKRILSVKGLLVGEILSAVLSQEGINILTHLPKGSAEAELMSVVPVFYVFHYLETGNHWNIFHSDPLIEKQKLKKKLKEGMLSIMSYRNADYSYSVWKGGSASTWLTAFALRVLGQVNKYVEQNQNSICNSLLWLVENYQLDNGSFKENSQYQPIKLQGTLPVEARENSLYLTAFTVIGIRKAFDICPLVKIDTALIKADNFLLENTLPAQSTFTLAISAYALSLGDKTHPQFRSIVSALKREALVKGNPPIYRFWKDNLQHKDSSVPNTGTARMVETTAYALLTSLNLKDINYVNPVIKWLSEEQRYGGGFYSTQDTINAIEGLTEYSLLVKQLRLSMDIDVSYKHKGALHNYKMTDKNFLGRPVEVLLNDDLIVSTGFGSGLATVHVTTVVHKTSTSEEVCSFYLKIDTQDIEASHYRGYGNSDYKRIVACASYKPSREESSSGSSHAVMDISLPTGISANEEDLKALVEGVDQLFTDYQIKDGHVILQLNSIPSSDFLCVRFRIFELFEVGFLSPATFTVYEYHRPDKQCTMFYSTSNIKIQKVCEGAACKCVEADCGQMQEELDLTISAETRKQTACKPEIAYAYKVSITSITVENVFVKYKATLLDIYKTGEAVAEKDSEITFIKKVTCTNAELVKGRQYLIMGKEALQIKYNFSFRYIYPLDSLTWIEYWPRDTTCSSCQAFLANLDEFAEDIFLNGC

[2] = biological target: T1, human complement component C5; experiment: cell-based or functional assay
[3] = biological target: T1, human complement component C5; experiment: cell-based or functional assay; remark: listed apart in the source
[4] = biological target: T2, human serum albumin (human, UniProt P02768 25-609); experiment: monoclonal phage ELISA
T2 construct: also called HSA

[5] = biological target: T1, human complement component C5; experiment: SPR, cysteines reduced and capped with iodoacetamide; K57, cysteines reduced and capped with iodoacetamide
[6] = biological target: T1, human complement component C5; experiment: SPR (Biacore), C5, mean of n=3
[7] = biological target: T1, human complement component C5
[8] = biological target: T1, human complement component C5; remark: listed apart in the source
[9] = biological target: T3, human complement component C3 (human, UniProt P01024 23-667; P01024 672-1663); experiment: counter screen
T3 construct: also called biotinylated C3
T3 sequence (P01024 23-667 limits assumed, chain 1 of 2): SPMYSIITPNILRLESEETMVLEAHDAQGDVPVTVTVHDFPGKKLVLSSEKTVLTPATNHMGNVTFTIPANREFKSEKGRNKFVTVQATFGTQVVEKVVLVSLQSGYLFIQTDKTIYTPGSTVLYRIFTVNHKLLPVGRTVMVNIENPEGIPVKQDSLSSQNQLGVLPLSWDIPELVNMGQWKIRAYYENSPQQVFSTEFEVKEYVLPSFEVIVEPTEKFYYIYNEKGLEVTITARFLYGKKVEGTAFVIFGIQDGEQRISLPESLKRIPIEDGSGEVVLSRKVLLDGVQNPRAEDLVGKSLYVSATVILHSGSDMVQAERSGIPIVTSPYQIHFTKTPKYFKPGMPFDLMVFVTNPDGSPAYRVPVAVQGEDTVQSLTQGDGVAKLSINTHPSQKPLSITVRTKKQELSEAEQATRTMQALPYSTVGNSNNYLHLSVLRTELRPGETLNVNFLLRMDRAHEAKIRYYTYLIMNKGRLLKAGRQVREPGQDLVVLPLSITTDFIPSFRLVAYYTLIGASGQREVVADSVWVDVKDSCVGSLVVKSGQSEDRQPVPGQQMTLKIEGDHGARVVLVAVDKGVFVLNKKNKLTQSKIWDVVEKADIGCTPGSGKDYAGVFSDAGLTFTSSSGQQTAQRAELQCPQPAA
T3 sequence (P01024 672-1663 limits assumed, chain 2 of 2): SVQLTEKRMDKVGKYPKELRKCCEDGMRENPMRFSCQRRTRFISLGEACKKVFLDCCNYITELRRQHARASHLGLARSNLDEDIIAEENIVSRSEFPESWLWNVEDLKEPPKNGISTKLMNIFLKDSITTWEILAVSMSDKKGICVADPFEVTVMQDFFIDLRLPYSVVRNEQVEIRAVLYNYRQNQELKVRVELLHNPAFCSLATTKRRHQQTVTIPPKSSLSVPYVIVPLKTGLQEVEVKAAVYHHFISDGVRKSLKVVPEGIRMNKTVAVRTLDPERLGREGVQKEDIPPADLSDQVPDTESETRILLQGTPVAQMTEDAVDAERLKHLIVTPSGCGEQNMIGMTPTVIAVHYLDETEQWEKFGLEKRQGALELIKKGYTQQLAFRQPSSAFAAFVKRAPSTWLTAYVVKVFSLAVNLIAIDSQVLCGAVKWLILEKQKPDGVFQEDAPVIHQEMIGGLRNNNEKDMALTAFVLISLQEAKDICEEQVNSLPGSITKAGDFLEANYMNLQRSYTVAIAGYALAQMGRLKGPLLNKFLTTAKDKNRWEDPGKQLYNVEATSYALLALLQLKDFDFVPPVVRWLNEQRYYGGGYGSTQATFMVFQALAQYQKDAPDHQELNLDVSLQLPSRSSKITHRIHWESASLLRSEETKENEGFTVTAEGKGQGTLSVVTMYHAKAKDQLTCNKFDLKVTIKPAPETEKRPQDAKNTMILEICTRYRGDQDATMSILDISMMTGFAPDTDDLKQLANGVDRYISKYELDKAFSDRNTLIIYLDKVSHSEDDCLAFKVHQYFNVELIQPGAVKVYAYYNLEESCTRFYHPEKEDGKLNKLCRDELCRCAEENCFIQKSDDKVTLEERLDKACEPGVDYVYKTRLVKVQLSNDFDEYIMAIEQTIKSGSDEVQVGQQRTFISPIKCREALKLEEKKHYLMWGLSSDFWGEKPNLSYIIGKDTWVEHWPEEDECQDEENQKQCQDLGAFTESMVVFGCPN

[10] = biological target: T4, ovalbumin (UniProt P01012 2-386); experiment: counter screen
T4 sequence (looked up): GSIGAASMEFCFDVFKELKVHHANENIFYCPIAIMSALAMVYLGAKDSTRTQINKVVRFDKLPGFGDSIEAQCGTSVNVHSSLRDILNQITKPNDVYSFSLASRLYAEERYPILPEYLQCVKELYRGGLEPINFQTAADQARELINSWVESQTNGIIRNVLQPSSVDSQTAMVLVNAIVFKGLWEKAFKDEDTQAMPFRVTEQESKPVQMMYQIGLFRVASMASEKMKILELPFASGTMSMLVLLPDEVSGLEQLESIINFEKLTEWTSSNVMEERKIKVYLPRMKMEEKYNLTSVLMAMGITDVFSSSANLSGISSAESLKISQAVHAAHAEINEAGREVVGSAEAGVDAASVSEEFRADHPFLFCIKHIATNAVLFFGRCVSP

[11] = biological target: T1, human complement component C5; experiment: SPR single-cycle kinetics
[12] = biological target: T1, human complement component C5; experiment: cell-based or functional assay; remark: listed apart in the source
[13] = biological target: T1, human complement component C5; experiment: cell-based or functional assay; remark: listed apart in the source
[14] = biological target: T1, human complement component C5; experiment: cell-based or functional assay; remark: listed apart in the source
[15] = biological target: T1, human complement component C5; experiment: cell-based or functional assay; remark: listed apart in the source
[16] = biological target: T5, mouse C5 (mouse, UniProt P06684 19-674; P06684 679-1680); experiment: SPR single-cycle kinetics, n=1
T5 construct: mature; also called mouse C5 protein
T5 sequence (P06684 19-674 limits assumed, chain 1 of 2): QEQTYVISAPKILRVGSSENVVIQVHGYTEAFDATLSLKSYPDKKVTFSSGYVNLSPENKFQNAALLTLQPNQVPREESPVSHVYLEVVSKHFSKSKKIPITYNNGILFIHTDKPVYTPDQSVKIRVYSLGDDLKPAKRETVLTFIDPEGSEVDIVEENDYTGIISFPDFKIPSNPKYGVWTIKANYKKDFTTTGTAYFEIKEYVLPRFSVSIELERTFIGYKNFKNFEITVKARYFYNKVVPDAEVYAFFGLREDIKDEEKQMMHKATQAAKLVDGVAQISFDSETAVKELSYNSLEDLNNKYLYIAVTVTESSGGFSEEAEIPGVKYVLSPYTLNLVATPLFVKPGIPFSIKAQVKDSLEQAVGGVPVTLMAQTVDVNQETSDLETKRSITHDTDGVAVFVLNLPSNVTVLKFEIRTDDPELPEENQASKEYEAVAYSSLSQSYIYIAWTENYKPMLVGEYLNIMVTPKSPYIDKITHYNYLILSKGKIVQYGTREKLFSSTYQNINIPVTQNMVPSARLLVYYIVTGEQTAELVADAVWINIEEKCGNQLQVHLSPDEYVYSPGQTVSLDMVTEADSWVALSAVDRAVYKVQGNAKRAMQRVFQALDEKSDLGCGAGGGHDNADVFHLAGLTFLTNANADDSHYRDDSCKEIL
T5 sequence (P06684 679-1680 limits assumed, chain 2 of 2): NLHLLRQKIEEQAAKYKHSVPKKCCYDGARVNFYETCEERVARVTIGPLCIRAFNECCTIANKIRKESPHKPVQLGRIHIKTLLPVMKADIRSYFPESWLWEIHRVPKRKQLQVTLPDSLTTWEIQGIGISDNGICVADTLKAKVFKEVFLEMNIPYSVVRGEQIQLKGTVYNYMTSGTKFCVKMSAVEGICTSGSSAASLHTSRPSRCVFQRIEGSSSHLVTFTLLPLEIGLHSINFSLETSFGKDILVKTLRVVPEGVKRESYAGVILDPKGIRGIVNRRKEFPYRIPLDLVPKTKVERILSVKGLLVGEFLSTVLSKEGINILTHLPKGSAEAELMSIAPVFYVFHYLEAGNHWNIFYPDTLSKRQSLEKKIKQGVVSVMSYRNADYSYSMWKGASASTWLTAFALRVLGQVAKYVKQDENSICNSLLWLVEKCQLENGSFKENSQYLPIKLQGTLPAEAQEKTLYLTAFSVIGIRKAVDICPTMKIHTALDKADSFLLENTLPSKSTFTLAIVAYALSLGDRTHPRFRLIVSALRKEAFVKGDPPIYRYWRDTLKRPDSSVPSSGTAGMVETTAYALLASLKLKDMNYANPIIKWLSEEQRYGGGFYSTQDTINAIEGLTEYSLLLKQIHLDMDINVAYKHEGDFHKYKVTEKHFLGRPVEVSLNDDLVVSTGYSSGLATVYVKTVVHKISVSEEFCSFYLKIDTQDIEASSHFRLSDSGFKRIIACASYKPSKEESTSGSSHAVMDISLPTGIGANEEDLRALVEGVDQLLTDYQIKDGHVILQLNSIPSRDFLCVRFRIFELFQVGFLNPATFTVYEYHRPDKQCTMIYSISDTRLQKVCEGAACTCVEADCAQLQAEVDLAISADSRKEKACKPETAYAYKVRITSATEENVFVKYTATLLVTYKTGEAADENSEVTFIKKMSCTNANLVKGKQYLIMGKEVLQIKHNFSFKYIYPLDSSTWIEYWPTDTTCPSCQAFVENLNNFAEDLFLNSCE

[17] = biological target: T6, rabbit C5 (rabbit); experiment: SPR single-cycle kinetics, n=1
T6 construct: mature; also called rabbit C5 protein

[18] = biological target: T1, human complement component C5; experiment: cell-based or functional assay; remark: listed apart in the source
[19] = biological target: T1, human complement component C5; experiment: cell-based or functional assay; remark: listed apart in the source
[20] = biological target: T1, human complement component C5; experiment: cell-based or functional assay; remark: listed apart in the source
[21] = biological target: T1, human complement component C5; experiment: cell-based or functional assay; remark: listed apart in the source
[22] = biological target: T1, human complement component C5; experiment: SPR single-cycle kinetics, human C5, n=1
[23] = biological target: T1, human complement component C5; experiment: SPR multi-cycle kinetics, human C5 immobilised, mean of n=3
[24] = biological target: T3, human complement component C3; experiment: phage ELISA, OD 630 nm, anti-M13 HRP; C3 coated directly and biotinylated C3 captured on streptavidin
[25] = biological target: T1, human complement component C5; experiment: phage ELISA, OD 630 nm, anti-M13 HRP; C5 coated directly and biotinylated C5 captured on streptavidin
[26] = biological target: T3, human complement component C3; experiment: SPR (Biacore), C3, mean of n=3
[27] = biological target: T1, human complement component C5; experiment: cell-based or functional assay; remark: listed apart in the source
[28] = biological target: T1, human complement component C5; experiment: SPR single-cycle kinetics (Biacore 8K), C5 amine-coupled to a CM5 chip

B1: K92, reduced and cysteines capped with iodoacetamide (peptide)
peptide: TC(Cam)PEGWSEC(Cam)GVAIYGYEC(Cam)GRWGC(Cam)GHFLNSGPNISPYVST
notes: also called K92 (loss of disulphide bonds)
Kd [1]: 2000 nM

B2: hC3nb1-K57 loop 1 with C-terminal single-chain Fc tag (bispecific antibody, not shown: a dimerising Fc or GST)
VHH: QVQLVETGGGLVQASGGGSGCPPGYKSGVDCSPGSECKWGCYAVDGRRYGGYGADSGVSGGGSGSLRLSCAASGSIFSLNAMGWFRQAPGKEREFVATINRSGGRTYYADSVKGRFTISRDNGKNMVYLQMHSLKPEDTAIYYCAAGTGWSPQTDNEYNYWGQGTQVTVSS
alternative pathway C5b neoepitope ELISA; IC50 (read off the curve) [2]: ~200 nM | classical pathway C5b neoepitope ELISA; IC50 (read off the curve) [3]: ~50 nM

B3: ultralong CDR-H3 of SEQ ID NO: 498 displayed on M13 phage (other)
chain: TTVHQQTHQDQTCPDGYTRTNYYCRRDGCGSWCNGAERQQPCIRGPCCCDLTYRTAYEYHVET
notes: not shown: poly-histidine, c-myc tag, M13 pIII
binding result [4]: binds

B4: K57, reduced and cysteines capped with iodoacetamide (peptide)
peptide: GC(Cam)PPGYKSGVDC(Cam)SPGSEC(Cam)KWGC(Cam)YAVDGRRYGGYGADSGVGS
notes: also called K57 (loss of disulphide bonds)
Kd [5]: 76 nM

B5: hC3nb1-K57 loop 2 delta proline with C-terminal single-chain Fc tag (bispecific antibody, V domains shown, not shown: a dimerising Fc or GST)
VH: WFRQASGGGSGCPPGYKSGVDCSPGSECKWGCYAVDGRRYGGYGADSGVSGGGSKEREFVATINRSGGRTYYADSVKGRFTISRDNGKNMVYLQMHSLKPEDTAIYYCAAGTGWSPQTDNEYNYWGQGTQVTVSS
notes: also called hC3Nb1Loop2ΔP
Kd [6]: 0.864 nM | classical pathway C5b neoepitope ELISA; IC50 (read off the curve) [3]: ~20 nM

B6: K8 knob domain peptide cleaved from the 645 Fab (peptide)
peptide: GSVCPDGFNWGYGCAAGSSRFCTRHDWCCYDERADSHTYGFCTGNRVENLYFQ
notes: Recombinant, cut out by TEV protease
Kd [7]: 17.3 nM | koff [7]: 0.000357 s⁻¹ | kon [7]: 26100 M⁻¹ s⁻¹ | IC50 [8]: 20.7 nM and 31.2 nM and 26.1 nM and 25.6 nM | Ki [8]: 12.8 nM | binding result [9]: no binding | binding result [10]: no binding | Kd [11]: < 40 nM | Inhibition of classical pathway mediated C5a release, geomean IC50 [12]: 9.9 nM | Inhibition of alternative pathway mediated C5a release, average Emax [13]: 71.8% | Inhibition of alternative pathway mediated C5a release, geomean IC50 [13]: 150 nM | Inhibition of classical pathway mediated bacterial lysis, geomean IC50 [14]: 16900 nM | Inhibition of alternative pathway mediated bacterial lysis, average Emax [15]: 98.1% | Inhibition of alternative pathway mediated bacterial lysis, geomean IC50 [15]: 25800 nM | Kd [16]: 4.69 nM | koff [16]: 0.00019 s⁻¹ | kon [16]: 40400 M⁻¹ s⁻¹ | Kd [17]: 9.12 nM | koff [17]: 0.000296 s⁻¹ | kon [17]: 32400 M⁻¹ s⁻¹

B7: K8 knob domain peptide, chemically synthesised, free energy method (peptide)
peptide: VCPDGFNWGYGCAAGSSRFCTRHDWCCYDERADSHTYGFCTGNRV
modifications: disulfide (positions not given here); not fully specified
notes: Disulphides formed in glutathione redox buffer; also called K8chemFE; K8chem
Classical pathway C5b deposition ELISA, average Emax [18]: 47.3% | Classical pathway C5b deposition ELISA, geomean IC50 [18]: 9.8 nM | Alternative pathway C5b neoepitope ELISA, average Emax [19]: 91.5% | Alternative pathway C5b neoepitope ELISA, geomean IC50 [19]: 46.1 nM | classical pathway complement ELISA (C5b deposition); IC50 (read off the curve) [20]: ~30 nM | alternative pathway complement ELISA (C5b deposition); IC50 (read off the curve) [21]: ~80 nM | Kd [22]: 12.1 nM | koff [22]: 0.000397 s⁻¹ | kon [22]: 32900 M⁻¹ s⁻¹ | Kd [23]: 5.46 nM | koff [23]: 0.000385 s⁻¹ | kon [23]: 70500 M⁻¹ s⁻¹

B8: hC3nb1-K149 (K149 ultralong CDR-H3 in framework 3 of hC3nb1) displayed on M13 phage (bispecific antibody)
VHH: QVQLVETGGGLVQAGGSLRLSCAASGSIFSLNAMGWFRQAPGKEREFVATINRSGGRTYYADSVKGRFTISRDNGTSVLQSTKPQKSCPDGFSYRSWDDFCCPMVGRCLAPRNTYTTEFTIEAKNMVYLQMHSLKPEDTAIYYCAAGTGWSPQTDNEYNYWGQGTQVTVSS
notes: also called hC3nb1-K149 CDR-H3; not shown: poly-histidine, c-myc tag, M13 pIII
binding result [24]: no binding | binding result [25]: no binding

B9: hC3nb1 VHH displayed on M13 phage (VHH)
VHH: QVQLVETGGGLVQAGGSLRLSCAASGSIFSLNAMGWFRQAPGKEREFVATINRSGGRTYYADSVKGRFTISRDNGKNMVYLQMHSLKPEDTAIYYCAAGTGWSPQTDNEYNYWGQGTQVTVSS
notes: as for B3
binding result [25]: no binding

B10: hC3nb1-K57 C-term with C-terminal single-chain Fc tag (bispecific antibody, V domains shown, not shown: a dimerising Fc or GST)
VH: QVQLVETGGGLVQAGGSLRLSCAASGSIFSLNAMGWFRQAPGKEREFVATINRSGGRTYYADSVKGRFTISRDNGKNMVYLQMHSLKPEDTAIYYCAAGTGWSPQTDNEYNYWGQGTQVTVSS
notes: also called hC3Nb1 C-Term
Kd [26]: 0.302 nM | Kd [6]: 0.271 nM

B11: K92 knob domain peptide cleaved from the 645 Fab (peptide)
peptide: GSGSVTCPEGWSECGVAIYGYECGRWGCGHFLNSGPNISPYVTTGSENLYFQ
notes: as for B6
Kd [7]: < 0.85 nM | koff [7]: 0.000113 s⁻¹ | kon [7]: 124000 M⁻¹ s⁻¹ | IC50 [8]: 7.6 nM and 7.4 nM and 7.3 nM | Ki [8]: 3.7 nM | binding result [9]: no binding | binding result [10]: no binding | Kd [11]: < 40 nM | Inhibition of alternative pathway mediated C5a release, average Emax [13]: 43.3% | Inhibition of alternative pathway mediated C5a release, geomean IC50 [13]: 43.3 nM | Inhibition of alternative pathway mediated bacterial lysis, average Emax [15]: 91% | Inhibition of alternative pathway mediated bacterial lysis, geomean IC50 [15]: 2460 nM | Kd [16]: 63.1 nM | koff [16]: 0.00487 s⁻¹ | kon [16]: 77200 M⁻¹ s⁻¹ | Kd [17]: 76.6 nM | koff [17]: 0.00466 s⁻¹ | kon [17]: 60800 M⁻¹ s⁻¹

B12: K92chemFE knob domain peptide (peptide)
peptide: TCPEGWSECGVAIYGYECGRWGCGHFLNSGPNISPYVST
notes: also called chemical K92
alternative pathway complement ELISA (C5b deposition); IC50 (read off the curve) [21]: ~70 nM | alternative pathway haemolysis assay; IC50 (read off the curve) [27]: ~200 nM | Kd [23]: 0.411 nM | koff [23]: 0.000101 s⁻¹ | kon [23]: 283000 M⁻¹ s⁻¹

B13: K60 knob domain peptide cleaved from the 645 Fab (peptide)
peptide: GSKSCREGYIDGGGCCLPGSCRGCACSYYDWLKCPRDCRGTSEEENLYFQ
notes: as for B6
binding result [9]: no binding | binding result [10]: no binding | binding result [28]: no binding
